Measured values from paper PMC9651861 (Science Advances, 2022).

How the values were obtained:
Conditions in all cases: both partners purified
human serum albumin [1] = target: T1, human serum albumin (Homo sapiens, UniProt P02768); test: BLI
T1 construct: also called HSA

[2] = target: T2, SARS-CoV-2 Spike Glycoprotein (S1) His-Tagged RBD (SARS-CoV-2, UniProt P0DTC2); test: BLI
T2 construct: source: bought: The Native Antigen Company (REC31849), produced in HEK293 cells

human serum albumin [3] = target: T1, human serum albumin; test: BLI; remark: listed apart in the source
human serum albumin [4] = target: T1, human serum albumin; test: BLI; HSA (4 μM) loaded on APS sensors; DesAbs at 1 μM, 500 nM and 250 nM (Nb.B201 at 800 and 400 nM); 170 mM NaCl, 50 mM tris-HCl, 10 mM MgCl2 pH 7.4; 25°C; global fit, Kd = Koff/Kon
[5] = target: T2, SARS-CoV-2 Spike Glycoprotein (S1) …; test: BLI; remark: listed apart in the source
[6] = target: pancreatic bovine trypsin (Bos taurus, UniProt P00760); test: BLI; His-tagged DesAb (7.5 μM) loaded to saturation on Ni-NTA sensors, trypsin in solution; 170 mM NaCl, 50 mM tris-HCl, 10 mM MgCl2 pH 7.4; 25°C
Chain of pancreatic bovine trypsin (P00760 24-246): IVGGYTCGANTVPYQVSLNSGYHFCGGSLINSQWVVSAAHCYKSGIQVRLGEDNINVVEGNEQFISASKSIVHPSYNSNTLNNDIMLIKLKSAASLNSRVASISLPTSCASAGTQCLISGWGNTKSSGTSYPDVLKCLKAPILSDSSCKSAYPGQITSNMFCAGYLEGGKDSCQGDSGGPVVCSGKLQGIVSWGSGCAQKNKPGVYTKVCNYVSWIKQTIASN

human serum albumin [7] = target: T1, human serum albumin; test: BLI; HSA (4 μM) loaded on APS sensors; DesAbs at 1 μM, 500 nM and 250 nM (Nb.B201 at 800 and 400 nM); 170 mM NaCl, 50 mM tris-HCl, 10 mM MgCl2 pH 7.4; 25°C; global fit, Kd = Koff/Kon; remark: listed apart in the source

B1: Nb.B201 (VHH)
VHH: QVQLQESGGGLVQAGGSLRLSCAASGYISDAYYMGWYRQAPGKEREFVATITHGTNTYYADSVKGRFTISRDNAKNTVYLQMNSLKPEDTAVYYCAVLETRSYSFRYWGQGTQVTVSS
notes: also called yeast display-derived anti-HSA nanobody
binding result (human serum albumin [1]): binds

B2: DesAb-RBD-C1 (VHH)
VHH: EVQLEESGGGLVQPGGSLRLSCAASGFNIKDTYIGWVRQAPGKGEEWVASIYPTSGYTRYADSVKGRFTISADTSKNTAYLQMNSLRAEDTAVYYCAAGSGSSATEVYEEFDYWGQGTLVTVSS
Kd [2]: 210 nM

B3: DesAb-HSA-P1 (VHH)
VHH: EVQLEESGGGLVQPGGSLRLSCAASGFNIKDTYIGWVRQAPGKGEEWVASIYPTSGYTRYADSVKGRFTISADTSKNTAYLQMNSLRAEDTAVYYCAAGSIQKSLQTAESILEEFDYWGQGTLVTVSS
Kd (human serum albumin [3]): 120 nM

B4: DesAb-RBD-C2 (VHH)
VHH: EVQLEESGGGLVQPGGSLRLSCAASGFNIKDTYIGWVRQAPGKGEEWVASIYPTSGYTRYADSVKGRFTISADTSKNTAYLQMNSLRAEDTAVYYCAAGSVVADLSVEEFDYWGQGTLVTVSS
Kd [2]: 130 nM

B5: DesAb-HSA-D3 (VHH)
VHH: EVQLQESGGGLVQAGGSLRLSCAASGELYALISMGWFRQAPGKEREFVAAISRNGDNTYYTDSVKGRFTISRDNAKNTVELQMNSLKPEDTAVYYCAADKFASPDGSVTIMTNEYDYWGQGTQVTVSD
Kd (human serum albumin [3]): 180 nM

B6: DesAb-Tryp (VHH)
VHH: EVQLEESGGGLVQPGGSLRLSCAASGFNIKDTYIGWVRQAPGKGEEWVASIYPTSGYTRYADSVKGRFTISADTSKNTAYLQMNSLRAEDTAVYYCAAGSQSGYHFEEFDYWGQGTLVTVSS
binding result (human serum albumin [4]): no binding (tested: 1 μM) | binding result [5]: no binding (tested: 4 μM) | Kd [6]: 1800 nM

B7: DesAb-HSA-P2 (VHH)
VHH: EVQLEESGGGLVQPGGSLRLSCAASGFNIKDTYIGWVRQAPGKGEEWVASIYPTSGYTRYADSVKGRFTISADTSKNTAYLQMNSLRAEDTAVYYCAAGSAQAGNAEEAEEEFDYWGQGTLVTVSS
Kd (human serum albumin [7]): 380 nM
